Measured values: the nanobody polyreactivity screen of Harvey et al. (2022)

Assay: yeast display, Sf9 membrane polyspecificity reagent, FACS + sequencing; frameworks hold sequencing errors
Outline: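 Nanobodies came from a synthetic yeast display library in Saccharomyces cerevisiae BJ5465, induced with galactose for 36–48 hours and stained for 1 hour at 4 °C with 10% biotinylated, detergent-solubilized Sf9 membrane reagent. Cells were enriched on streptavidin microbeads and then FACS-sorted, with low and high (top ~1%) gates set on anti-HA fluorescence for expression and streptavidin fluorescence for reagent binding. Each polyreactivity label reflects the gate a clone came from. Genes were amplified by colony PCR, sequenced by MiSeq 2 × 250 and filtered by CDR length.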

Sequence	polyreactivity (PSR sort gate)
QVQLVESGGGLVQAGGSLRLSCAASGFTFKRYAMGWYRQAPGKESELVAVISSGGSTYYADSVKGRFTISRDNAKNTVYLQMNSLKPEDTAVYYCNAYIGGSSWHTALDYWGQGTQVTVSS	high polyreactivity
QVQLVESGGGLVQAGGSLRLSCAASGFTFKSYAMGWYRQAPGKERELVASISRRGGSTYYADSVKGRFTISRDNAKNTVYLQMNSLKPEDTAVYYCAADKRPPYILDYWGLGTQVTVSS	high polyreactivity
QVQLVESGGGLVQAGGSLRLSCAASGFTFKSYTMAWYRHAPGKERELVANISRRGGSTYYADSVKGRFTLSRDNAKNTVYLQMNSLKPEDTAVYYCAADAYGFLDTTYRYFYWGQGSQVTVSS	high polyreactivity
QVQLVESGGGLVQAGGSLRLSCAASGFTFKVYNAMGWYRQAPGKERELVAAITSSVGGTYYADSVKGRFTISRDNAKNTFYLQMNSLKPEDTAVYYFATDGPISPYWEWPWLLYDYWGQGTQVTVSS	low polyreactivity
QVQLVESGGGLVQAGGSLRLSCAASGFTFKWYAMGWYRQAPGKERELVATITIGGRTNYADSVKGRFTISRDNAKNTVYLQMNSLKPEDTAVYCCATFFVGFRLSDYDYWGQGTQVTVSS	low polyreactivity
QVQLVESGGGLVQAGGSLRLSCAASGFTFKWYAMGWYRQAPGKERELVATITIGGRTNYADSVKGRFTISRDNAKNTVYLQMNSLKPEDTAVYYCAAESGKIVDFVWVLAYPRLDYWGQGTQVTVSS	low polyreactivity
QVQLVESGGGLVQAGGSLRLSCAASGFTFKYNAMGWYRHAPGKERELVAAISSSDGTNYADSVKGRFTISRDNAKNTVYLQMNSLKQEDTAVYYCAADYFYLEDYYYWGQGSQVTVSS	low polyreactivity
QVQLVESGGGLVQAGGSLRLSCAASGFTFKYYAMGWYRPAPRKERELVADITRSGGSTYYADSVKGRFTISRDNAKNTVYLQMNSLKPEDTAGYYCAVDPVRYPYSYDYWGQGTQVTGSS	high polyreactivity
QVQLVESGGGLVQAGGSLRLSCAASGFTFKYYAMGWYRQAPGKERELVARISWSGGSTYYADSVKGRFTISRDNAKNTFYLQMNSLKPEDTAVYYCNTDVGYGFDYWGQGTQVTVSS	high polyreactivity
QVQLVESGGGLVQAGGSLRLSCAASGFTFKYYAMGWYRQAPGKERELVARISWSGGSTYYADSVKGRFTISRDNAKNTVYLQMNSLKPEDTAVYYCAAKLYSKRTGARMNYWGQGTQVTVSS	high polyreactivity
QVQLVESGGGLVQAGGSLRLSCAASGFTFLANGMGWYRQAPGKERELVAGITKDGGSTYADSVKGRFTISRDNAKNTVYLQMNSLKPEDTAVYYCAASIFSFSGGLNNGGTRGYWGQGTQVTVSS	low polyreactivity
QVQLVESGGGLVQAGGSLRLSCAASGFTFLDYAMGWYRQAPGKERELVAAIDDSGGSTYYADSVKGRFTISRDNAKNTVYLQMNSLKPEDTAVYYCAADWYFFSQLYDYWGQGTQVTVSS	low polyreactivity
QVQLVESGGGLVQAGGSLRLSCAASGFTFLKNAMGWYRQAPGKERELVAAITSSGGRTYYADSVKGRFTISRDNAKNTVYLQMNSLKPEDTAVYYCAADHTHGYVLYYNDNYWGQGTQVTVSS	high polyreactivity
QVQLVESGGGLVQAGGSLRLSCAASGFTFLKNAMGWYRQAPGKERELVAAITSSGGRTYYADSVKGRFTISRDNAKYTVYLQMNSLKPEDTAVYYCNKGPLPGYDYWGQGNQVTVSS	high polyreactivity
QVQLVESGGGLVQAGGSLRLSCAASGFTFLKYAMGWYRQAPGKERELVAAISWSGDSTYYADSVKGRFTISRDNAKNTVYLQMNSLKPEDTAVYYCAATYSFYGYYYWGQGTQVTVSS	high polyreactivity
QVQLVESGGGLVQAGGSLRLSCAASGFTFLPYVMGWYRQAPGKERELVAAMSSSGGSTYYADSVKGRFTISRDNAKNTVYLQMNSLKPEDTAVYYCAKDIGVRRRDFEDYEYWGQGTQVTVSS	low polyreactivity
QVQLVESGGGLVQAGGSLRLSCAASGFTFLRYAMGWYRQAPGKERELVAAITGGGNTNYADSVKGRFTISRDNAKNTVYLQMNSLKPEDTAVYYCNARRRYWPYREDYWGQGTQVTVSS	high polyreactivity
QVQLVESGGGLVQAGGSLRLSCAASGFTFLRYAMGWYRQAPGKERELVAAITRGGTTYYADSVKGRFTISRDNAKNTVYLQMNSLKPEDTAVYYCNTLTSYTRYNYWGQGTQVTVSS	high polyreactivity
QVQLVESGGGLVQAGGSLRLSCAASGFTFNGKSMGLYRQAPGKERELVAAISYSGGSTYYADSVKGRFTISRDYAKNTVYLQMNSLKPEDTSVYYCAADRTAYSVRGYTKVHSGHDYWGQGTQVSVSS	low polyreactivity
QVQLVESGGGLVQAGGSLRLSCAASGFTFNKYAMGWYRQEPGKERELVAAISVSGSRTYYADSVKGRFTISRDNAKNTFYLQMNSLKPEDTAVYYCAATHYSQVSDDYWGQGTQVTVSS	high polyreactivity
QVQLVESGGGLVQAGGSLRLSCAASGFTFNKYDMGWYRQAPGKERELVAVITWSGGSTYYADSVKGRFTISRDNAKNTVYLQMKSLKPEDTAVYYCNAEAPRYTYGRMDYWGQGTQVTVSS	low polyreactivity
QVQLVESGGGLVQAGGSLRLSCAASGFTFNNYAMGWYRQAPGKERELVAAISSVGRTYYADSVKGRFTISRDNAKNTVYLQLNSLKPEDTAVYYCAVVYPARGSGNDSWGQGTQVTLSS	high polyreactivity

Sequence	polyreactivity (PSR sort gate)
QVQLVESGGGLVQAGGSLRLSCAASGFTFNPNAMGWYRQAPGKERELVAAITWSSGRTYYADSVKGRFTISRDNAKNTVYLQMNSLKPEDTAVYYCAARGYSYNYDYWGQGTQVTVSS	high polyreactivity
QVQLVESGGGLVQAGGSLRLSCAASGFTFNRNAMGWYIQAPGKERELVAAISWSGGSTYYADSVKGRFTISRDNAKNTVYLQMNSLKPEDTAVYYCAKGYRRVYGPFYYWGQGTQVTVSS	low polyreactivity
QVQLVESGGGLVQAGGSLRLSCAASGFTFNRYAMGWYRQAPGKERELVAAISRSTATTYYADSVKGRFTISRDNAKNTVYLQMNSLKPEDTAVYYCNAPQRYWPPYGYWGQGTQVTVSS	high polyreactivity
QVQLVESGGGLVQAGGSLRLSCAASGFTFNWYAMAWYRQAPGKERELVATINSGGSTYYADSVKGRFTISRDNAKNTVYLQMISLKPEDTAVYYCNRTHRRRYVKSAYIYWGQGTQVTVSS	low polyreactivity
QVQLVESGGGLVQAGGSLRLSCAASGFTFNYYAMGGYRQAPGKERELVAAIDSGTSTNYADSVKGRFTISRDNAKNTVYLQMNSLKPEDTAVYYCAADPGIFDGIFDYWGQGSQVTVSS	low polyreactivity
QVQLVESGGGLVQAGGSLRLSCAASGFTFNYYAMGWYRQAPGTERELVAAITSSGGSTYYADSVKGRFTISRDNAKNTVYLLMNSLKPEDTAVYYCNAAVYDHRYIYGFDYWGQGTQVTVSS	high polyreactivity
QVQLVESGGGLVQAGGSLRLSCAASGFTFPAYVMRWYRQAPGKERELVAAISKSGGSTYYADSVKGRFTISRDNAKNTVYLQMNCLKPEDTAVYYCAKYWVTRRFQYDYWGQGTQVTVSS	high polyreactivity
QVQLVESGGGLVQAGGSLRLSCAASGFTFPDYAMGWYRQAPAKERELVAAISSDGSTYYADSVNGRFTISRDNAHNTVYLQMNSLKPEDTAVYYCAAYVVWLYGYDYWGQGTQVTVSS	low polyreactivity
QVQLVESGGGLVQAGGSLRLSCAASGFTFPGYARGWYRQAPGKERELVAAISRGGAGTYYADSVKGRFTISRDNAKNTVYLQMNSLKPEDTAVYYCAAVYYVDYPDGNYEYWGQGTQVTVSS	high polyreactivity
QVQLVESGGGLVQAGGSLRLSCAASGFTFPGYTMGWYRQAPGKERELVAAITWSGGSTYYADSVKGRFTISRDTAKNTVYLQMNSLKPEDTAVYYCAAKYGAYYGNRDYWGQGTQVTVSS	high polyreactivity
QVQLVESGGGLVQAGGSLRLSCAASGFTFPHYAMGRYRQAPGKERELVAAINGGDTRTYYADSVKGRFTSSRDNAKNTVYLQRNSLKPEDTAVYYCAADREAGGTRLSRDYYWGQGTQVTVSS	high polyreactivity
QVQLVESGGGLVQAGGSLRLSCAASGFTFPKYAMGWYRQAPGKERELVAAISYRGGSTYYADSVKGRFTISRDNAKNTVYLQMNSLKPEDTAVYYCAAEIPHAPYEYWGQGTQVTVSS	high polyreactivity
QVQLVESGGGLVQAGGSLRLSCAASGFTFPLYAMGWYRQAPGKERELVAVISRSGGSTYYADSVKGRFTISRDNAKNTVYLQMNSLKPEDTAVYYCATRRRPQYNKYDYWGQGTQVTVSS	high polyreactivity
QVQLVESGGGLVQAGGSLRLSCAASGFTFPSNAMGWYRQAPGKERELVAAISSTDSTNYADSVKGRFTISRDNAKNTVYFQMNSLKPEDTAVYYCAKRYPRYRYNTRGNDYWGQGTQVTVSS	low polyreactivity
QVQLVESGGGLVQAGGSLRLSCAASGFTFPSNAMGWYRQAPGKERELVAAISSTDSTNYADSVKGRFTISRDNAKNTVYLQMNSLKPEDTAVYYCNADRDDDYDYWGQGTQVTVSS	low polyreactivity
QVQLVESGGGLVQAGGSLRLSCAASGFTFPSYTMGWYRQAPGKERELVAAISRSDGTTYYADSVKGRFTISRDNAKNTVYLQMNSLKPEDTAVYYCNKAYKRYGYHYDYWGQGTQVTVSS	high polyreactivity
QVQLVESGGGLVQAGGSLRLSCAASGFTFPVYAMGWSRQAPGKERELVAAISWSGGGTYYADSVKGRFTISRDNAKNTVYVQMNSLKPEDTAVYYCAVEDLSHAYVQHYRYGYGYWGQGTQVTVSS	low polyreactivity
QVQLVESGGGLVQAGGSLRLSCAASGFTFPVYVLGWYRQAPGKERELVAAISGGGGTSYADSVKGRFTISRDNAKNTVYLQMNSLKPEDTAVYYCAADYRTYVYVYGFRHFDYWGQGTQVTVSS	low polyreactivity
QVQLVESGGGLVQAGGSLRLSCAASGFTFPWNVMGWYRQAPGKERELVAAITYDGGGTYADSVKGRFTISRDNAKNTVYLQMNSLKPEDTAVYYSNADLIYGEEYDYWGQGTQVTVSS	low polyreactivity
QVQLVESGGGLVQAGGSLRLSCAASGFTFPWYAMVWYRQSPGKERELVASISYRGDSTYYADSVKGRFTISRDNAKNTVNLQMNILKPEDTAVYYCNKLLASYYLPGFDYWGQGTQVTVSS	low polyreactivity
QVQLVESGGGLVQAGGSLRLSCAASGFTFPYNAMGWYRQAPGKERELVAAISSGDSTYYADSVKGRFTISRDNAKNTVYLQMKSLKPEDTAVYYCDAYPSLYYTKYDYWGQGTQVTVSS	high polyreactivity
